This is an account of results in article PMC5039092 (FEBS letters, 2016).

Series [1] concerns the molecule itself. In words: SDS-PAGE and Western blot. (In general: In western blotting, separated proteins are transferred to a membrane and probed.)
Series [2] concerns the molecule itself. Kind of series: SEC. On the technique in general: In gel filtration, larger molecules generally elute earlier.

Residue numbers refer to the chain shown, from its start. Names and notes keep the numbering of the source.

B1: C394S mutant of full length human adenosine A2a receptor with a C-terminal 10 histidine tag (receptor, UniProt P29274 1-412, looked up)
chain: MPIMGSSVYITVELAIAVLAILGNVLVCWAVWLNSNLQNVTNYFVVSLAAADIAVGVLAIPFAITISTGFCAACHGCLFIACFVLVLTQSSIFSLLAIAIDRYIAIRIPLRYNGLVTGTRAKGIIAICWVLSFAIGLTPMLGWNNCGQPKEGKNHSQGCGEGQVACLFEDVVPMNYMVYFNFFACVLVPLLLMLGVYLRIFLAARRQLKQMESQPLPGERARSTLQKEVHAAKSLAIIVGLFALCWLPLHIINCFTFFCPDCSHAPLWLMYLAIVLSHTNSVVNPFIYAYRIREFRQTFRKIIRSHVLRQQEPFKAAGTSARVLAAHGSDGEQVSLRLNGHPPGVWANGSAPHPERRPNGYALGLVSGGSAQESQGNTGLPDVELLSHELKGVSPEPPGLDDPLAQDGAGVS
Take B1: the binding result in series [1] is listed as “binds”.

B2: spin labeled wild type full length human adenosine A2a receptor with a C-terminal 10 histidine tag (receptor, UniProt P29274 1-412, looked up)
chain: B1 chain with S394C
modifications: nitroxide radical MTSL spin label attached to free cysteines (thiol of C394)
Regarding B2, the binding result in series [2] was “binds”.
